Among the targets are CARD14, Q9BXL6; DLG2_1, Q15700; LMO7, Q8WWI1; MAGIX, Q9H6Y5; MAST3, O60307; NHERF4_3, Q86UT5; PARD3B_2, Q8TEW8; PDLIM4, P50479; PDZRN4_2, Q6ZMN7; DVL2, O14641.
Holding throughout (test): holdup assay
Holding throughout (set-up): key: below the threshold = too weak to quantify, mostly under pKd 3.1 to 4

The target of a further experiment is T1, LNX2_4, Q8N448.
T1 sequence (Q8N448 595-690, limits assumed, looked up): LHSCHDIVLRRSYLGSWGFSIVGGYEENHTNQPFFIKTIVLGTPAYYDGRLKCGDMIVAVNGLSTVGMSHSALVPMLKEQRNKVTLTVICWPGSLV

The target of a further experiment is T2, NHERF1_2, O14745.
T2 sequence (O14745 149-244, limits assumed, looked up): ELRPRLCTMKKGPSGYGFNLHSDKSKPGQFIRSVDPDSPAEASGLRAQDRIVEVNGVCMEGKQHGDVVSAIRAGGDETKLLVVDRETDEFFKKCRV

The next experiment concerns the target T3, PDZD2_4, O15018.
T3 sequence (O15018 723-823, limits assumed, looked up): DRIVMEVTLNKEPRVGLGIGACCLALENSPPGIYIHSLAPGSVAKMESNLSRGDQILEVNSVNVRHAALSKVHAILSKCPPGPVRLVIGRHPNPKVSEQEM
Conditions: plain residues with an end cap or a label only (N-terminal biotin on a linker: ttds).

Another experiment has as its target T4, PDZD2_5, O15018.
T4 sequence (O15018 2617-2716, limits assumed, looked up): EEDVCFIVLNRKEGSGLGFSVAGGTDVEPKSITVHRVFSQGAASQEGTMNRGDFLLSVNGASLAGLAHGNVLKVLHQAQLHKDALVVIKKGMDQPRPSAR

The target in the next experiment is T5, PDZD4, Q76G19.
T5 sequence (Q76G19 125-224, limits assumed, looked up): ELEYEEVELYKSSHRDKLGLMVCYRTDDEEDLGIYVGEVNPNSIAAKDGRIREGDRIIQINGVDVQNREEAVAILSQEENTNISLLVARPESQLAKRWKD

Another experiment addresses T6, PDZD7_1, Q9H5P4.
T6 sequence (Q9H5P4 81-178, limits assumed, looked up): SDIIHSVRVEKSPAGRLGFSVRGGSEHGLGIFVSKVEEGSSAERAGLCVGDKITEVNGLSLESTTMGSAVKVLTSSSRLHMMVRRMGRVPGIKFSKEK

The target in the next experiment is T7, PTPN13_5, Q12923.
T7 sequence (Q12923 1877-1975, limits assumed, looked up): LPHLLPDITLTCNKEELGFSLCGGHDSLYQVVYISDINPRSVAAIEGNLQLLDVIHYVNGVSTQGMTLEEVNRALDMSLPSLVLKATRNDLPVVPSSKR

The target in the next experiment is T8, PTPN4, P29074.
T8 sequence (P29074 512-599, limits assumed, looked up): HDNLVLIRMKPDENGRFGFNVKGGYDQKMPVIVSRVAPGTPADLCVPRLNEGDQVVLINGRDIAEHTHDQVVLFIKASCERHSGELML

In a further experiment the target is T9, RGS12, O14924.
T9 sequence (O14924 17-108, limits assumed, looked up): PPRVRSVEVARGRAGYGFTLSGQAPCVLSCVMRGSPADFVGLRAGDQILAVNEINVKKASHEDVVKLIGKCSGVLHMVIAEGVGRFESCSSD

For the next experiment, the target named is T10, SHROOM4, Q9ULL8.
T10 sequence (Q9ULL8 5-102, limits assumed, looked up): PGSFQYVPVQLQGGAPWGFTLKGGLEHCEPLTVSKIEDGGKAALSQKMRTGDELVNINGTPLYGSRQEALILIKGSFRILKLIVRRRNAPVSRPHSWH

The next experiment deals with T11, SNTB2, Q13425.
T11 sequence (Q13425 110-208, limits assumed, looked up): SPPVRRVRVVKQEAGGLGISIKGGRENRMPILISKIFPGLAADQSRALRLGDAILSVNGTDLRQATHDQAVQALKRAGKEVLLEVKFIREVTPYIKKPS

The target of the next experiment is T12, SYNPO2L, Q9H987.
T12 sequence (Q9H987 1-98, limits assumed, looked up): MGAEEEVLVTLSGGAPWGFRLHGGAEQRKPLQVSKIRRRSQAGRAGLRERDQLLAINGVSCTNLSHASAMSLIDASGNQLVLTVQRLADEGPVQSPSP

A further experiment addresses T13, USH1C_1, Q9Y6N9.
T13 sequence (Q9Y6N9 82-179, limits assumed, looked up): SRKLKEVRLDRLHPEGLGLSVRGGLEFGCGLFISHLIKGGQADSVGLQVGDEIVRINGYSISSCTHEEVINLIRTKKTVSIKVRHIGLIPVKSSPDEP

[1] abbreviates: plain residues with an end cap or a label only (N-terminal biotin on a linker: ttds).
Where [2] appears, read: plain residues with an end cap or a label only (N-terminal biotin on a linker: none).

The record followed here is PMC9482650, “Quantitative fragmentomics allow affinity mapping of interactomes” (Nature Communications, 2022).

Chain of NHERF4_3, Q86UT5 (Q86UT5 325-412): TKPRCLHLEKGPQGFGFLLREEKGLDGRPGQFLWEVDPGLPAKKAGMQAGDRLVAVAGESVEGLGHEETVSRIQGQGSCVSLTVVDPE
Chain of PDZRN4_2, Q6ZMN7 (Q6ZMN7 389-498): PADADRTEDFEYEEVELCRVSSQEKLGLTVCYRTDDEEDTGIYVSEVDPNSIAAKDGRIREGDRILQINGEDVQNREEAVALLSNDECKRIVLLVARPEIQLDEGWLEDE
Chain of PARD3B_2, Q8TEW8 (Q8TEW8 376-471): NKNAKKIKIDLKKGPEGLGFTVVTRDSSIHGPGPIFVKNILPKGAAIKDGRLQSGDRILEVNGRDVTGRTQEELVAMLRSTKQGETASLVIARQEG
Chain of DVL2, O14641 (O14641 260-359): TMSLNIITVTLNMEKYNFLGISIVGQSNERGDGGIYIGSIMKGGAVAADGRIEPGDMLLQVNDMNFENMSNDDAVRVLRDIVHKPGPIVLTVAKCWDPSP
Chain of CARD14, Q9BXL6 (Q9BXL6 558-663): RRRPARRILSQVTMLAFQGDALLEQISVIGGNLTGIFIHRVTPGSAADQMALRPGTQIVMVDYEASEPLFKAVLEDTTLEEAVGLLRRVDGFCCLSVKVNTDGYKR
Chain of MAST3, O60307 (O60307 945-1048): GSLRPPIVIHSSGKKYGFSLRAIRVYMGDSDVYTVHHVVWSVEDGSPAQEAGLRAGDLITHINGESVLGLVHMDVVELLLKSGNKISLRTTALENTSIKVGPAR
Chain of MAGIX, Q9H6Y5 (Q9H6Y5 118-211): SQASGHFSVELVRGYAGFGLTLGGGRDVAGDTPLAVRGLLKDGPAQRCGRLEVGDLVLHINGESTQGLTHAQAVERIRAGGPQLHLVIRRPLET
Chain of PDLIM4, P50479 (P50479 1-83): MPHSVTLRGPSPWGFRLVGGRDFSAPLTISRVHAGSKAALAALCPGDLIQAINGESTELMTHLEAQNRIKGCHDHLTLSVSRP
Chain of LMO7, Q8WWI1 (Q8WWI1 1037-1138): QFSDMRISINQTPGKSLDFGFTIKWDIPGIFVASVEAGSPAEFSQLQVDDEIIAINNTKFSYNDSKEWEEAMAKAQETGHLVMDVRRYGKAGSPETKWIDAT

On to SSLQSLETSV [ATP2B4, P23634], for which the pKd (commonly −log10 of the Kd, conventionally taken in molar units) with CARD14, Q9BXL6 (setting [1]) is “below the threshold”; with DLG2_1, Q15700 (setting [1]), 4.94; with LMO7, Q8WWI1 (setting [1]) it was 4.5; in the experiment with LNX2_4, Q8N448 (setting [1]) it was “below the threshold”; with MAGIX, Q9H6Y5 (setting [1]), “below the threshold”; in the experiment with MAST3, O60307 (setting [1]), “below the threshold”. Moreover, the pKd entry with NHERF1_2, O14745 (setting [1]) is given as “below the threshold”; in the experiment with NHERF4_3, Q86UT5 (setting [1]) it was “below the threshold”; with PARD3B_2, Q8TEW8 (setting [1]), “below the threshold”; with PDLIM4, P50479 (setting [1]), “below the threshold”; with PDZD2_4, O15018 it was “below the threshold”; in the experiment with PDZD2_5, O15018 (setting [1]) it was “below the threshold”. The pKd result in the experiment with PDZD4, Q76G19 (setting [1]) was “below the threshold”; with PDZD7_1, Q9H5P4 (setting [1]), “below the threshold”; in the experiment with PDZRN4_2, Q6ZMN7 (setting [1]), 4.24; in the experiment with PTPN13_5, Q12923 (setting [1]), “below the threshold”; in the experiment with PTPN4, P29074 (setting [1]), 4.88; with RGS12, O14924 (setting [1]) it was “below the threshold”. Moreover, the negative logarithm of the Kd (pKd) in the experiment with SHROOM4, Q9ULL8 (setting [1]) was 4.68; in the experiment with SNTB2, Q13425 (setting [1]) it was 4.87; with SYNPO2L, Q9H987 (setting [1]), “below the threshold”; with USH1C_1, Q9Y6N9 (setting [1]), “below the threshold”.

Take NLNSSRVPDLLV [SARS-CoV2-E, P0DTC4]: the pKd entry in the experiment with CARD14, Q9BXL6 (setting [2]) is reported as “below the threshold”; with DLG2_1, Q15700 (setting [2]) it was “below the threshold”; with DVL2, O14641 (setting [2]), “below the threshold”; in the experiment with LMO7, Q8WWI1 (setting [2]) it was “below the threshold”; in the experiment with LNX2_4, Q8N448 (setting [2]), “below the threshold”; with MAGIX, Q9H6Y5 (setting [2]), “below the threshold”. Also, the pKd entry in the experiment with MAST3, O60307 (setting [2]) is “below the threshold”; in the experiment with NHERF1_2, O14745 (setting [2]), 4.76; with NHERF4_3, Q86UT5 (setting [2]), “below the threshold”; with PARD3B_2, Q8TEW8 (setting [2]), “below the threshold”; in the experiment with PDLIM4, P50479 (setting [2]), “below the threshold”; with PDZD2_5, O15018 (setting [2]) it was “below the threshold”. Moreover, the pKd entry with PDZD4, Q76G19 (setting [2]) is “below the threshold”; with PDZD7_1, Q9H5P4 (setting [2]), “below the threshold”; in the experiment with PDZRN4_2, Q6ZMN7 (setting [2]), “below the threshold”; with PTPN13_5, Q12923 (setting [2]), “below the threshold”; with PTPN4, P29074 (setting [2]), “below the threshold”; in the experiment with RGS12, O14924 (setting [2]), “below the threshold”. Besides, the pKd result in the experiment with SHROOM4, Q9ULL8 (setting [2]) is given as “below the threshold”; with SNTB2, Q13425 (setting [2]), “below the threshold”; with SYNPO2L, Q9H987 (setting [2]) it was “below the threshold”; in the experiment with USH1C_1, Q9Y6N9 (setting [2]), “below the threshold”.

On to SKPTRRETEV [HPV35-E6, P27228], for which the negative-log Kd (pKd) was 4.91 with DLG2_1, Q15700 (setting [1]); “below the threshold” with DVL2, O14641 (setting [1]); 3.56 in the experiment with MAGIX, Q9H6Y5 (setting [1]); “below the threshold” with MAST3, O60307 (setting [1]); “below the threshold” with NHERF1_2, O14745 (setting [1]); 3.78 in the experiment with NHERF4_3, Q86UT5 (setting [1]). Further, the pKd entry in the experiment with PARD3B_2, Q8TEW8 (setting [1]) is “below the threshold”; with PDLIM4, P50479 (setting [1]), 4.16; with PDZD2_4, O15018, “below the threshold”; with PDZD2_5, O15018 (setting [1]), 3.77; with PDZD4, Q76G19 (setting [1]), 3.55; with PDZD7_1, Q9H5P4 (setting [1]), “below the threshold”. The pKd entry with PDZRN4_2, Q6ZMN7 (setting [1]) was “below the threshold”; with PTPN13_5, Q12923 (setting [1]) it was “below the threshold”; with PTPN4, P29074 (setting [1]), 4.03; with RGS12, O14924 (setting [1]) it was “below the threshold”; with SHROOM4, Q9ULL8 (setting [1]), “below the threshold”; in the experiment with SYNPO2L, Q9H987 (setting [1]), “below the threshold”. In addition, the pKd result with USH1C_1, Q9Y6N9 (setting [1]) is listed as “below the threshold”.

For RHTTSTETAV [HPV30-E6, P36809], the pKd result with CARD14, Q9BXL6 (setting [1]) was “below the threshold”; with DLG2_1, Q15700 (setting [1]), 4.84; in the experiment with DVL2, O14641 (setting [1]), “below the threshold”; in the experiment with LMO7, Q8WWI1 (setting [1]), “below the threshold”; with LNX2_4, Q8N448 (setting [1]) it was “below the threshold”; with MAGIX, Q9H6Y5 (setting [1]) it was 5.35. For the same molecule, the pKd entry with MAST3, O60307 (setting [1]) is “below the threshold”; with NHERF1_2, O14745 (setting [1]), “below the threshold”; with NHERF4_3, Q86UT5 (setting [1]) it was “below the threshold”; with PARD3B_2, Q8TEW8 (setting [1]), “below the threshold”; in the experiment with PDLIM4, P50479 (setting [1]) it was “below the threshold”; in the experiment with PDZD2_4, O15018, 4.78. The negative logarithm of the Kd (pKd) result in the experiment with PDZD2_5, O15018 (setting [1]) was “below the threshold”; with PDZD4, Q76G19 (setting [1]) it was “below the threshold”; in the experiment with PDZD7_1, Q9H5P4 (setting [1]), “below the threshold”; with PDZRN4_2, Q6ZMN7 (setting [1]) it was 4.48; in the experiment with PTPN13_5, Q12923 (setting [1]), “below the threshold”; with PTPN4, P29074 (setting [1]) it was 4.72. For the same molecule, the pKd result with RGS12, O14924 (setting [1]) was “below the threshold”; with SHROOM4, Q9ULL8 (setting [1]), 4.73; with SNTB2, Q13425 (setting [1]) it was 4.68; with SYNPO2L, Q9H987 (setting [1]), “below the threshold”; with USH1C_1, Q9Y6N9 (setting [1]), “below the threshold”.

For the molecule QRQARSETLV [HPV59-E6, Q81964], the pKd result with CARD14, Q9BXL6 (setting [1]) was “below the threshold”; with DLG2_1, Q15700 (setting [1]), 4.52; with DVL2, O14641 (setting [1]), “below the threshold”; with LMO7, Q8WWI1 (setting [1]) it was “below the threshold”; with LNX2_4, Q8N448 (setting [1]), 4.61; in the experiment with MAGIX, Q9H6Y5 (setting [1]), “below the threshold”. The pKd result is “below the threshold” with MAST3, O60307 (setting [1]); “below the threshold” with NHERF1_2, O14745 (setting [1]); 4.28 with NHERF4_3, Q86UT5 (setting [1]); “below the threshold” with PARD3B_2, Q8TEW8 (setting [1]); “below the threshold” with PDLIM4, P50479 (setting [1]); “below the threshold” with PDZD2_4, O15018. Besides, the pKd entry with PDZD2_5, O15018 (setting [1]) was “below the threshold”; in the experiment with PDZD4, Q76G19 (setting [1]), “below the threshold”; with PDZD7_1, Q9H5P4 (setting [1]), “below the threshold”; with PDZRN4_2, Q6ZMN7 (setting [1]), “below the threshold”; with PTPN13_5, Q12923 (setting [1]), 4.52; with PTPN4, P29074 (setting [1]), “below the threshold”. Besides, the pKd result is on record as “below the threshold” in the experiment with RGS12, O14924 (setting [1]); “below the threshold” with SHROOM4, Q9ULL8 (setting [1]); “below the threshold” with SNTB2, Q13425 (setting [1]); “below the threshold” in the experiment with SYNPO2L, Q9H987 (setting [1]); “below the threshold” with USH1C_1, Q9Y6N9 (setting [1]).
